Here are results for 32 molecules from article PMC10786891, “Massively parallel profiling of RNA-targeting CRISPR-Cas13d”.

The labels stand for the following.
T1: EsCas13d, nuclease-dead (Eubacterium siraeum, UniProt B0MS50, R295A;H300A;R849A;H854A)
T1 sequence: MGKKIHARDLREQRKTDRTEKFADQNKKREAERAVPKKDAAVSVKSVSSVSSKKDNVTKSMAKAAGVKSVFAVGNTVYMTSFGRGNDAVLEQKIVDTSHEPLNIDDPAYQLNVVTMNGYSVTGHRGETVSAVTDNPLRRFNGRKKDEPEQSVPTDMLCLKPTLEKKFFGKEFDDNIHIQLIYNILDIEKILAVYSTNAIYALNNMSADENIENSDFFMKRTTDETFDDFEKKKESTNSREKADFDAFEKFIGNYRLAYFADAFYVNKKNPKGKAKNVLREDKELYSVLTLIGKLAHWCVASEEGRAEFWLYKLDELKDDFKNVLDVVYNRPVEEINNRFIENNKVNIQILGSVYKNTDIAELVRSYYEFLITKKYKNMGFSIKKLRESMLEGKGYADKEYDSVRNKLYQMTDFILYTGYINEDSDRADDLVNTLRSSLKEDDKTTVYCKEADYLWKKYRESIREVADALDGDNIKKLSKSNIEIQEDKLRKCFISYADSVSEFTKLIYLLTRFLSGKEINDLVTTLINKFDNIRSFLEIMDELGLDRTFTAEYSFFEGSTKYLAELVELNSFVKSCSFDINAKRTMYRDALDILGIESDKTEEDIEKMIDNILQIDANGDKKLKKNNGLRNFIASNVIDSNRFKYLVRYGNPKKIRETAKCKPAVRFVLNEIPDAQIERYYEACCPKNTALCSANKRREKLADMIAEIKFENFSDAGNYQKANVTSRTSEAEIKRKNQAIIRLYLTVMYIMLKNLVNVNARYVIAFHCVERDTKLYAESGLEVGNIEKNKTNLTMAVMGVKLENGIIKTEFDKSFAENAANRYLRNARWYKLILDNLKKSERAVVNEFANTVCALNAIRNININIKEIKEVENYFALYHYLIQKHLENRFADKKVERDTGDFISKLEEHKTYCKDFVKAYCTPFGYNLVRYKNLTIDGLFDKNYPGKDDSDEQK

B1: target 1 C2U,G17C (mixed)
RNA 1: CACCCGUGCAAAAAUGCAGGGGUCUAAAACUGAGCGGAUAACCUCUCUAUGG
RNA 2: GGGAAUGGAUCCACAUCUACGAAUUCGUACCAUACAGAGGUUAUCCGCUUACCGAGAUCGGAAGAGCACACGU
B2: target 1 insG 3' of 2,insU 3' of 2 (mixed)
RNA 1: B1 RNA 1
RNA 2: GGGAAUGGAUCCACAUCUACGAAUUCGUACCAUAGAGAGGUUAUCCGCUCGUACCGAGAUCGGAAGAGCACACGU
B3: target 1 insU 3' of 17,insU 3' of 16 (mixed)
RNA 1: B1 RNA 1
RNA 2: GGGAAUGGAUCCACAUCUACGAAUUCGUACCAUAGUAUGAGGUUAUCCGCUCACCGAGAUCGGAAGAGCACACGU
B4: target 1 A9G,G17U (mixed)
RNA 1: B1 RNA 1
RNA 2: B1 RNA 2 with C35U, A43G, U50C
B5: target 1 insG 3' of 22,insC 3' of 19 (mixed)
RNA 1: B1 RNA 1
RNA 2: B3 RNA 2 with C31G, A32C, U33A, A34U, G35C, U36A, A37G, U38A
B6: target 1 insG 3' of 10,insU 3' of 1 (mixed)
RNA 1: B1 RNA 1
RNA 2: GGGAAUGGAUCCACAUCUACGAAUUCGUACCAUAGAGAGGUUGAUCCGCUCAUCCGAGAUCGGAAGAGCACACGU
B7: target 1 insU 3' of 18,insC 3' of 3 (mixed)
RNA 1: B1 RNA 1
RNA 2: B6 RNA 2 with G35U, A36G, G37A, A38G, G39A, U41G, G43U, A52C, U53A
B8: target 1 insU 3' of 2,insU 3' of 2 (mixed)
RNA 1: B1 RNA 1
RNA 2: B2 RNA 2 with G51U
B9: target 1 insU 3' of 18,insC 3' of 9 (mixed)
RNA 1: B1 RNA 1
RNA 2: B3 RNA 2 with G35U, U36G, U38G, G39A, A40G, G42U, U44A, A45C
B10: target 1 insG 3' of 18,insG 3' of 2 (mixed)
RNA 1: B1 RNA 1
RNA 2: B6 RNA 2 with A36G, G37A, A38G, G39A, U41G, G43U, A52G, U53A
B11: target 1 insC 3' of 20,insA 3' of 2 (mixed)
RNA 1: B1 RNA 1
RNA 2: GGGAAUGGAUCCACAUCUACGAAUUCGUACCACUAGAGAGGUUAUCCGCUCAACCGAGAUCGGAAGAGCACACGU
B12: target 1 A1G,A16G (mixed)
RNA 1: B1 RNA 1
RNA 2: B1 RNA 2 with C35G, A36G, U50C, A51G
B13: target 1 insU 3' of 17,insA 3' of 6 (mixed)
RNA 1: B1 RNA 1
RNA 2: B3 RNA 2 with U38G, G39A, A40G, G42U, U44A, A45U, U46C, C48A
B14: target 1 insG 3' of 10,insC 3' of 1 (mixed)
RNA 1: B1 RNA 1
RNA 2: B6 RNA 2 with U53C
B15: target 1 G12U,G15U (mixed)
RNA 1: B1 RNA 1
RNA 2: B1 RNA 2 with C35G, G37U, G40U, U50C
B16: target 1 insG 3' of 10,insC 3' of 10 (mixed)
RNA 1: B1 RNA 1
RNA 2: B2 RNA 2 with A43G, U44C, C45A, C46U, G47C, U49G, G51U, U52C
B17: target 1 insG 3' of 14,insA 3' of 3 (mixed)
RNA 1: B1 RNA 1
RNA 2: B6 RNA 2 with U41G, G43U, C51A, A52C, U53A
B18: target 1 insG 3' of 10,insG 3' of 1 (mixed)
RNA 1: B1 RNA 1
RNA 2: B6 RNA 2 with U53G
B19: target 1 insG 3' of 21,insG 3' of 4 (mixed)
RNA 1: B1 RNA 1
RNA 2: B11 RNA 2 with A32G, C33A, U50G, C51U, A52C
B20: target 1 insA 3' of 10,insA 3' of 4 (mixed)
RNA 1: B1 RNA 1
RNA 2: B6 RNA 2 with G43A, U50A, C51U, A52C, U53A
B21: target 1 U3A,A18U (mixed)
RNA 1: B1 RNA 1
RNA 2: B1 RNA 2 with A34U, C35G, U49A, U50C
B22: target 1 G5U,G12A (mixed)
RNA 1: B1 RNA 1
RNA 2: B1 RNA 2 with C35G, G40A, G47U, U50C
B23: target 1 A1U,U3G (mixed)
RNA 1: B1 RNA 1
RNA 2: B1 RNA 2 with C35G, U49G, U50C, A51U
B24: target 1 insU 3' of 17,insA 3' of 15 (mixed)
RNA 1: B1 RNA 1
RNA 2: B3 RNA 2 with U38G, G39A
B25: target 1 insG 3' of 18,insU 3' of 13 (mixed)
RNA 1: B1 RNA 1
RNA 2: B3 RNA 2 with U36G, U38G, G39A, A40G, G41U
B26: target 1 insA 3' of 17,insU 3' of 7 (mixed)
RNA 1: B1 RNA 1
RNA 2: B3 RNA 2 with U36A, U38G, G39A, A40G, G42U, U44A, A45U, U46C, C47U
B27: target 1 insG 3' of 10,insA 3' of 2 (mixed)
RNA 1: B1 RNA 1
RNA 2: B6 RNA 2 with U53A
B28: target 1 C6U,C22G (mixed)
RNA 1: B1 RNA 1
RNA 2: B1 RNA 2 with C30G, C35G, C46U, U50C
B29: target 1 insG 3' of 8,insA 3' of 2 (mixed)
RNA 1: B1 RNA 1
RNA 2: B6 RNA 2 with G43A, A44U, U45G, U53A
B30: target 1 A1G,U3G (mixed)
RNA 1: B1 RNA 1
RNA 2: B1 RNA 2 with C35G, U49G, U50C, A51G
B31: target 1 G15C,C21A (mixed)
RNA 1: B1 RNA 1
RNA 2: B1 RNA 2 with C31A, C35G, G37C, U50C
B32: target 1 U19A,A20C (mixed)
RNA 1: B1 RNA 1
RNA 2: B1 RNA 2 with A32C, U33A, C35G, U50C

Substitutions are numbered along the chain they refer to. Names may count otherwise.

The target in this series is T1, EsCas13d, nuclease-dead. The series is described as follows: crRNA (strand 1, pre-loaded); Mg2+; 40 mM Tris-HCl pH 7.5, 150 mM NaCl, 6 mM MgCl2, 1 mM DTT, 0.1% Tween-20, 0.2 mg/ml BSA; 25 C; 10 min per concentration, then washed. As to conditions: tags: His6-TwinStrep-SUMO cleaved; N-terminal SNAP kept (SNAP-Surface 488); label: 3' end held by stalled T7 RNA polymerase.
For the molecule B1, binding was characterised by a dissociation constant (Kd) of 42 ± 5 nM.

For B2, the Kd (commonly the free concentration of one partner at which half of the binding sites on the other are occupied at equilibrium, for simple one-to-one binding) amounted to 8.9 ± 0.9 nM.

With B3, binding was characterised by a dissociation constant (Kd) of 41 ± 7 nM. This Kd is about 4.6-fold higher than that of the molecule before.

With B4, the Kd was 35 ± 6 nM.

Consider B5, for which the Kd is 52 ± 8 nM.

B6 gave a Kd of 33 ± 5 nM.

In turn, B7 displayed a Kd of 28 ± 4 nM.

Consider B8, for which the Kd is 9.6 ± 0.7 nM.

B9 had a Kd of 50 ± 5 nM.

In turn, B10 had a Kd of roughly 70 nM.

Regarding B11, the dissociation constant Kd stood at 10 ± 0.6 nM.

Turning to B12, the affinity, expressed as Kd, was 32.2 ± 3 nM.

Turning to B13, the affinity, expressed as Kd, was 45 ± 10 nM.

Take B14: the affinity, expressed as Kd, was 26.8 ± 2.5 nM.

B15 yielded a Kd of 23.3 ± 1.8 nM.

On to B16, for which the Kd was determined as 23.5 ± 1.7 nM.

Take B17: the Kd was determined as 11.4 ± 0.8 nM.

B18: binding was put at a Kd of 22.5 ± 2 nM.

In turn, B19 registered an equilibrium dissociation constant (Kd) of 51 ± 11 nM.

On to B20, for which the Kd was determined as 6.5 ± 0.4 nM.

In the case of B21, binding was characterised by a dissociation constant (Kd) of 33 ± 5 nM.

As to B22, the Kd was 42 ± 5 nM.

Turning to B23, the Kd came out at 8.1 ± 0.4 nM.

B24: the Kd came to 15.3 ± 2 nM.

B25: the Kd turned out to be 71 ± 17 nM.

Consider B26, for which the Kd is 20.6 ± 1.6 nM.

The molecule B27 showed a Kd of 22.2 ± 1.4 nM.

The molecule B28 displayed a Kd of 39 ± 8 nM.

As for B29, the Kd is 13.2 ± 0.9 nM.

B30 had an equilibrium dissociation constant (Kd) of 3.35 ± 0.12 nM.

Molecule B31 came in with a Kd of roughly 50 nM.

B32 registered a dissociation constant Kd of 45 ± 6 nM.
